# Patent CN112661841A (GUANGZHOU 8TH PEOPLES HOSPITAL, dated 2021)
# B1: 全人单克隆抗体17-2 (antibody, V domains shown)
# VH: QLQLQESGPGLVKASETLSLTCTVSSGSVSSDSYYWSWIRQPPGKGLEWIGYIYYSGSTNYNPSLKSRVTMSVDTSKNQFSLKLDSVTAADTAAYYCARGPLGLYYYYMDVWGKGTTVTVSS
# VL: DIQMTQSPSSLSASVGDRVTITCRASQSINNYLNWYQQKPGKAPKLLIYAASSLQSGVPSRFSGSGSGTDFALTISGLQPEDFATYYCQESNSSPFTFGPGTKVDIK
# notes: also called 17-2抗体
# Experiments:
# SARS-CoV-2 S2蛋白 = target: T1, SARS-CoV-2 S2蛋白 (SARS-CoV-2, UniProt P0DTC2 686-1213); assay: ELISA, antibody on S2 protein
# T1 construct: domain: S2
# SARS-CoV-2 S1蛋白 = target: T2, SARS-CoV-2 S1蛋白 (SARS-CoV-2, UniProt P0DTC2 16-685); assay: ELISA
# T2 construct: domain: S1
# SARS-CoV-2 S蛋白 [1] = target: T3, SARS-CoV-2 S蛋白 (SARS-CoV-2, UniProt P0DTC2 16-1213); assay: ELISA, antibody on S protein
# SARS-CoV-2 S蛋白 [2] = target: T3, SARS-CoV-2 S蛋白; assay: cell-based or functional assay
binder,measurement,setting,value
B1,EC50,SARS-CoV-2 S2蛋白,0.038 µg/mL
same,binding result,SARS-CoV-2 S1蛋白,no binding
same,EC50,SARS-CoV-2 S蛋白 [1],0.034 µg/mL
same,假病毒中和实验 IC50,SARS-CoV-2 S蛋白 [2],0.587 µg/mL
